Experimental data: article PMC8630191, “Regulation of PP2A, PP4, and PP6 holoenzyme assembly by carboxyl-terminal methylation” (Scientific Reports, 2021)

Key:
Conditions in all cases: partners not purified
[1] = biological target: T1, 3xFLAG-tagged PP2Acβ ΔL mutant (Leu 309 deleted) (human, UniProt P62714 1-309, ΔL309); test: affinity purification with mass spectrometry; 3xFLAG-tagged catalytic subunit (WT or ΔL) transfected in FreeStyle 293F cells; FLAG M2 affinity gel, 3 h at 4 °C; lysis and wash buffer 50 mM Tris pH 7.5, 500 mM NaCl, 0.5% Triton X-100; eluted with 3XFLAG peptide; label-free quantitative LC-MS/MS on unique peptides, three replicates
T1 construct: PP2A catalytic subunit, beta isoform (PP2Acβ, PPP2CB), human, in p3XFLAG-CMV10; C-terminal Leu 309 deleted by inserting a stop codon; also called ΔL309
T1 sequence (P62714 1-308, stated change not applied): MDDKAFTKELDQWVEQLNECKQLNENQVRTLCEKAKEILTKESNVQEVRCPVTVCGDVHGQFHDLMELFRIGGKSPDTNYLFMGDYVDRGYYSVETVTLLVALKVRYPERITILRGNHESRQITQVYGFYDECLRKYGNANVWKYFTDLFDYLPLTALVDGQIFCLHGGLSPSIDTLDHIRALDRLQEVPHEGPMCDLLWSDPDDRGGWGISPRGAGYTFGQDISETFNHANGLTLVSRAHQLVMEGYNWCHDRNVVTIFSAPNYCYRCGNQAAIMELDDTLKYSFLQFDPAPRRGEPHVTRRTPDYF

[2] = biological target: T2, PP2A catalytic subunit PP2Acα/β, endogenous (human (endogenous in HEK293T, HeLa, …, UniProt P67775 1-309, carboxyl methyl ester on the C-terminal leucine in wild-type cells; strongly reduced in LCMT1 hypomorph cells); test: affinity purification with mass spectrometry; PIB-MS: phosphatase inhibitor beads (microcystin-LR on sepharose) on HeLa lysates, wild type and LCMT1 hypomorph clone; label-free LC-MS/MS; subunits normalised to the respective catalytic subunit
T2 construct: PP2A catalytic subunit, alpha (PPP2CA) or beta (PPP2CB) isoform; One molecule for wild-type and LCMT1 hypomorph cells; also called PP2Acβ; PPP2CA/B
T2 sequence (P67775 whole entry, canonical isoform): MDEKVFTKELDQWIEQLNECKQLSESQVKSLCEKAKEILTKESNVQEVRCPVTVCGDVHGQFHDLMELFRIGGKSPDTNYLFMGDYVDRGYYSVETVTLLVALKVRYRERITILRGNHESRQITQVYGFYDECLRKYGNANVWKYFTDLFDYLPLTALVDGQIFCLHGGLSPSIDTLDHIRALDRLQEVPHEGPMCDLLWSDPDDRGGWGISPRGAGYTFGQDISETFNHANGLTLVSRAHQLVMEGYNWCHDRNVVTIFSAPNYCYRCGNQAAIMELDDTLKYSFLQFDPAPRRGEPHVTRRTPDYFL

[3] = biological target: T2, PP2A catalytic subunit PP2Acα/β, …; test: affinity purification with mass spectrometry; PIB-MS: phosphatase inhibitor beads (microcystin-LR on sepharose) on Rpe1 lysates, wild type and pooled LCMT1 hypomorph cells; label-free LC-MS/MS; subunits normalised to the respective catalytic subunit

B1: PR65β, PP2A scaffolding (A) subunit (natural protein, UniProt P30154 1-601, looked up)
chain: MAGASELGTGPGAAGGDGDDSLYPIAVLIDELRNEDVQLRLNSIKKLSTIALALGVERTRSELLPFLTDTIYDEDEVLLALAEQLGNFTGLVGGPDFAHCLLPPLENLATVEETVVRDKAVESLRQISQEHTPVALEAYFVPLVKRLASGDWFTSRTSACGLFSVCYPRASNAVKAEIRQQFRSLCSDDTPMVRRAAASKLGEFAKVLELDSVKSEIVPLFTSLASDEQDSVRLLAVEACVSIAQLLSQDDLETLVMPTLRQAAEDKSWRVRYMVADRFSELQKAMGPKITLNDLIPAFQNLLKDCEAEVRAAAAHKVKELGENLPIEDRETIIMNQILPYIKELVSDTNQHVKSALASVIMGLSTILGKENTIEHLLPLFLAQLKDECPDVRLNIISNLDCVNEVIGIRQLSQSLLPAIVELAEDAKWRVRLAIIEYMPLLAGQLGVEFFDEKLNSLCMAWLVDHVYAIREAATNNLMKLVQKFGTEWAQNTIVPKVLVMANDPNYLHRMTTLFCINALSEACGQEITTKQMLPIVLKMAGDQVANVRFNVAKSLQKIGPILDTNALQGEVKPVLQKLGQDEDMDVKYFAQEAISVLALA
notes: PP2A scaffolding subunit A, beta isoform (PR65β)
fold reduction of binding, ΔL against WT [1]: ~2 fold

B2: B56ε, PP2A regulatory subunit (natural protein)
chain: not shown
notes: PP2A regulatory subunit B56, epsilon isoform
fold more reduced in binding (LCMT1 HM against WT cells) than B56γ and B56δ [2]: 8 fold | fold reduction of binding, ΔL against WT [1]: 11 fold

B3: B55α, PP2A regulatory subunit (natural protein, human (endogenous in HeLa), UniProt P63151 1-447, looked up)
chain: MAGAGGGNDIQWCFSQVKGAVDDDVAEADIISTVEFNHSGELLATGDKGGRVVIFQQEQENKIQSHSRGEYNVYSTFQSHEPEFDYLKSLEIEEKINKIRWLPQKNAAQFLLSTNDKTIKLWKISERDKRPEGYNLKEEDGRYRDPTTVTTLRVPVFRPMDLMVEASPRRIFANAHTYHINSISINSDYETYLSADDLRINLWHLEITDRSFNIVDIKPANMEELTEVITAAEFHPNSCNTFVYSSSKGTIRLCDMRASALCDRHSKLFEEPEDPSNRSFFSEIISSISDVKFSHSGRYMMTRDYLSVKIWDLNMENRPVETYQVHEYLRSKLCSLYENDCIFDKFECCWNGSDSVVMTGSYNNFFRMFDRNTKRDITLEASRENNKPRTVLKPRKVCASGKRKKDEISVDSLDFNKKILHTAWHPKENIIAVATTNNLYIFQDKVN
notes: PP2A regulatory subunit B55, alpha isoform; source: endogenous, HeLa lysate
fold reduction of binding, LCMT1 HM against WT cells [2]: ~11 fold

B4: STRN (striatin) (natural protein, human (endogenous in Rpe1), UniProt O43815 1-780, looked up)
chain: MDEQAGPGVFFSNNHPGAGGAKGLGPLAEAAAAGDGAAAAGAARAQYSLPGILHFLQHEWARFEVERAQWEVERAELQAQIAFLQGERKGQENLKKDLVRRIKMLEYALKQERAKYHKLKYGTELNQGDMKPPSYDSDEGNETEVQPQQNSQLMWKQGRQLLRQYLQEVGYTDTILDVKSKRVRALLGFSSDVTDREDDKNQDSVVNGTEAEVKETAMIAKSELTDSASVLDNFKFLESAAADFSDEDEDDDVDGREKSVIDTSTIVRKKALPDSGEDRDTKEALKEFDFLVTSEEGDNESRSAGDGTDWEKEDQCLMPEAWNVDQGVITKLKEQYKKERKGKKGVKRPNRSKLQDMLANLRDVDELPSLQPSVGSPSRPSSSRLPEHEINRADEVEALTFPPSSGKSFIMGADEALESELGLGELAGLTVANEADSLTYDIANNKDALRKTWNPKFTLRSHFDGIRALAFHPIEPVLITASEDHTLKMWNLQKTAPAKKSTSLDVEPIYTFRAHKGPVLCVVMSSNGEQCYSGGTDGLIQGWNTTNPNIDPYDSYDPSVLRGPLLGHTDAVWGLAYSAAHQRLLSCSADGTLRLWNTTEVAPALSVFNDTKELGIPASVDLVSSDPSHMVASFSKGYTSIFNMETQQRILTLESNVDTTANSSCQINRVISHPTLPISITAHEDRHIKFYDNNTGKLIHSMVAHLEAVTSLAVDPNGLYLMSGSHDCSIRLWNLESKTCIQEFTAHRKKFEESIHDVAFHPSKCYIASAGADALAKVFV
notes: Striatin, PP2A regulatory subunit of the striatin family (B'''); source: endogenous, Rpe1 lysate
fold reduction of binding, LCMT1 HM against WT cells [3]: 4 fold

B5: STRN3 (striatin-3) (natural protein, human (endogenous in Rpe1), UniProt Q13033 1-797, looked up)
chain: MDELAGGGGGGPGMAAPPRQQQGPGGNLGLSPGGNGAAGGGGPPASEGAGPAAGPELSRPQQYTIPGILHYIQHEWARFEMERAHWEVERAELQARIAFLQGERKGQENLKKDLVRRIKMLEYALKQERAKYHKLKYGTELNQGDLKMPTFESEETKDTEAPTAPQNSQLTWKQGRQLLRQYLQEVGYTDTILDVRSQRVRSLLGLSNSEPNGSVETKNLEQILNGGESPKQKGQEIKRSSGDVLETFNFLENADDSDEDEENDMIEGIPEGKDKHRMNKHKIGNEGLAADLTDDPDTEEALKEFDFLVTAEDGEGAGEARSSGDGTEWDKDDLSPTAEVWDVDQGLISKLKEQYKKERKGKKGVKRANRTKLYDMIADLGDDELPHIPSGIINQSRSASTRMTDHEGARAEEAEPITFPSGGGKSFIMGSDDVLLSVLGLGDLADLTVTNDADYSYDLPANKDAFRKTWNPKYTLRSHFDGVRALAFHPVEPVLVTASEDHTLKLWNLQKTVPAKKSASLDVEPIYTFRAHIGPVLSLAISSNGEQCFSGGIDATIQWWNMPSPSVDPYDTYEPNVLAGTLVGHTDAVWGLAYSGIKNQLLSCSADGTVRLWNPQEKLPCICTYNGDKKHGIPTSVDFIGCDPAHMVTSFNTGSAVIYDLETSQSLVILSSQVDSGLQSNNHINRVVSHPTLPVTITAHEDRHIKFFDNKTGKMIHSMVAHLDAVTSLAVDPNGIYLMSGSHDCSIRLWNLDSKTCVQEITAHRKKLDESIYDVAFHSSKAYIASAGADALAKVFV
notes: Striatin-3, PP2A regulatory subunit of the striatin family (B'''); source: endogenous, Rpe1 lysate
fold reduction of binding, LCMT1 HM against WT cells [3]: 4 fold

B6: B56α, PP2A regulatory subunit (natural protein)
chain: not shown
notes: PP2A regulatory subunit B56, alpha isoform
fold reduction of binding, ΔL against WT [1]: 32 fold

B7: B55β, PP2A regulatory subunit (natural protein, human (endogenous in HeLa), UniProt Q00005 1-443, looked up)
chain: MEEDIDTRKINNSFLRDHSYATEADIISTVEFNHTGELLATGDKGGRVVIFQREQESKNQVHRRGEYNVYSTFQSHEPEFDYLKSLEIEEKINKIRWLPQQNAAYFLLSTNDKTVKLWKVSERDKRPEGYNLKDEEGRLRDPATITTLRVPVLRPMDLMVEATPRRVFANAHTYHINSISVNSDYETYMSADDLRINLWNFEITNQSFNIVDIKPANMEELTEVITAAEFHPHHCNTFVYSSSKGTIRLCDMRASALCDRHTKFFEEPEDPSNRSFFSEIISSISDVKFSHSGRYIMTRDYLTVKVWDLNMENRPIETYQVHDYLRSKLCSLYENDCIFDKFECVWNGSDSVIMTGSYNNFFRMFDRNTKRDVTLEASRENSKPRAILKPRKVCVGGKRRKDEISVDSLDFSKKILHTAWHPSENIIAVAATNNLYIFQDKVN
notes: PP2A regulatory subunit B55, beta isoform; source: endogenous, HeLa lysate
fold reduction of binding, LCMT1 HM against WT cells [2]: ~4 fold

B8: B56δ, PP2A regulatory subunit (natural protein)
chain: not shown
notes: PP2A regulatory subunit B56, delta isoform
fold reduction of binding, ΔL against WT [1]: 2 fold
